± gives the standard error. For part of these data: Variants at the floor of the assay were thinned out.
B1: glmS ribozyme (parent)
chain: AUAAAAGCGCCAGAACUACAGAAAUGUAGUUGACGAGGAGGAGGUUUAUCGAAUUUUCGGCGGAUGCCUCCAAA

Key:
Conditions in all cases: with glucosamine-6-phosphate
[1] = variants of: B1; experiment: kcat; higher = faster cleavage; RNA array
Procedure, shortened: (§1)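 kobs was derived by fitting per-tile medians to one- or two-exponential decays after normalising signals to baseline and to non-cleaving reference variants. Those signals came from barcoded ribozyme variants transcribed in situ by E. coli RNA polymerase on sequenced MiSeq chips, followed through a hybridised Cy3 probe at 37 °C and imaged over ~14 h. Glucosamine-6-phosphate (40 μM to 10 mM) in HEPES/KCl/Mg(OAc)2 buffer was flowed in. Weighted Michaelis–Menten fits across concentrations then gave kcat and KM.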

[2] = variants of: B1; experiment: KM; higher = weaker cofactor use; RNA array
Procedure, shortened: as §1

[3] = variants of: B1; experiment: self-cleavage kobs at 640 uM GlcN6P; higher = faster cleavage; RNA array
Procedure, shortened: as §1

[4] = variants of: B1; experiment: self-cleavage kobs at 2500 uM GlcN6P; higher = faster cleavage; RNA array
Procedure, shortened: as §1

[5] = variants of: B1; experiment: self-cleavage kobs at 10000 uM GlcN6P; higher = faster cleavage; RNA array
Procedure, shortened: as §1

[6] = variants of: B1; experiment: self-cleavage kobs at 40 uM GlcN6P; higher = faster cleavage; RNA array
Procedure, shortened: as §1

[7] = variants of: B1; experiment: self-cleavage kobs at 160 uM GlcN6P; higher = faster cleavage; RNA array
Procedure, shortened: as §1

Row | Variant | kcat [1] [s⁻¹] | KM [2] [µM] | self-cleavage kobs at 640 uM GlcN6P [3] [s⁻¹] | self-cleavage kobs at 2500 uM GlcN6P [4] [s⁻¹] | self-cleavage kobs at 10000 uM GlcN6P [5] [s⁻¹] | self-cleavage kobs at 40 uM GlcN6P [6] [s⁻¹] | self-cleavage kobs at 160 uM GlcN6P [7] [s⁻¹]
1 | G13U U46G | 0.000174 ± 4.9e-06 | 1460 ± 120 | 5.44e-05 ± 1.5e-05 | 0.000107 ± 2.4e-05 | 0.000153 ± 2.1e-05 |  | 
2 | G13C U47A G59U C67G | 1.81e-05 ± 2.9e-06 |  | < 1e-05 |  |  |  | 
3 | G13A C16A | 0.000316 ± 9.2e-06 |  |  | 4.78e-05 ± 7.4e-06 | 0.000132 ± 1.9e-05 |  | 
4 | G13A A53U C58A | 0.000493 ± 0.00022 |  | 6.46e-05 ± 1.6e-05 | 0.000366 ± 0.0001 | 0.000332 ± 8.4e-05 |  | 
5 | A12U U65G | 0.00705 ± 0.00071 | 4650 ± 730 | 0.000829 ± 0.00018 | 0.00239 ± 0.00046 | 0.00483 ± 0.00044 | 5.57e-05 ± 9.8e-06 | 0.000303 ± 6.4e-05
6 | G13U U69G | 2.13e-05 ± 6.6e-06 |  |  |  |  |  | 
7 | G13U U69A | 4.51e-05 ± 1.2e-05 |  |  | 6.1e-05 ± 1.3e-05 | 3.28e-05 ± 1.1e-05 |  | 
8 | G13A C71U | 0.00103 ± 0.00012 | 4730 ± 920 | 0.000138 ± 2e-05 | 0.000358 ± 5.1e-05 | 0.000698 ± 5.9e-05 |  | 2.52e-05 ± 8.2e-06
9 | G13U U56A | 0.0005 ± 2.3e-05 | 1880 ± 150 | 0.000124 ± 1.6e-05 | 0.000287 ± 3.6e-05 | 0.000422 ± 8.8e-05 |  | 4.35e-05 ± 1.3e-05
10 | A14C U31G | 0.0249 ± 0.0019 | 2550 ± 250 | 0.00494 ± 0.00094 | 0.0154 ± 0.0047 | 0.0194 ± 0.0031 | 0.000384 ± 5.3e-05 | 0.00145 ± 0.00024
11 | A14C U31A | 0.0083 ± 0.0041 |  | 0.00413 ± 0.0019 | 0.00676 ± 0.0026 |  | 0.000559 ± 0.00011 | 0.00135 ± 0.00031
12 | G13A G66U | 1.72e-05 ± 6.7e-06 |  |  |  |  | < 1e-05 | 
13 | G13A G66A | 0.000323 ± 2.9e-05 | 3550 ± 700 |  | 0.000129 ± 3.2e-05 | 0.000241 ± 4.7e-05 |  | 
14 | A12U U56A U65G | 0.00677 ± 0.0022 | 6820 ± 3000 | 0.000445 ± 0.00012 | 0.00177 ± 0.00048 | 0.00413 ± 0.00071 | 6.29e-05 ± 2e-05 | 0.00018 ± 4e-05
15 | G13C C68U | < 1e-05 |  | < 1e-05 |  |  | < 1e-05 | < 1e-05
16 | G13U U65A | 0.000112 ± 6.4e-06 | 1260 ± 270 |  | 7.82e-05 ± 1.7e-05 | 9.77e-05 ± 1.8e-05 |  | 

Row | Variant | kcat [1] [s⁻¹] | KM [2] [µM] | self-cleavage kobs at 640 uM GlcN6P [3] [s⁻¹] | self-cleavage kobs at 2500 uM GlcN6P [4] [s⁻¹] | self-cleavage kobs at 10000 uM GlcN6P [5] [s⁻¹] | self-cleavage kobs at 40 uM GlcN6P [6] [s⁻¹] | self-cleavage kobs at 160 uM GlcN6P [7] [s⁻¹]
17 | G13C A14C C61A C67U | 3.08e-05 ± 1.3e-05 |  | 4.47e-05 ± 1.8e-05 |  |  |  | 
18 | G13U G51A | < 1e-05 |  | < 1e-05 | < 1e-05 | < 1e-05 |  | 
19 | G13A A15U | 0.00015 ± 1.5e-05 | 3530 ± 1100 |  | 6.03e-05 ± 2.6e-05 | 0.000111 ± 1.5e-05 |  | 
20 | G13A A15G | 0.000875 ± 0.00018 | 1840 ± 670 | 0.000327 ± 5.6e-05 | 0.000431 ± 7.3e-05 | 0.000784 ± 0.00011 |  | 6.23e-05 ± 1.3e-05
21 | G13U C50G | 4.84e-05 ± 1.3e-05 |  | 6.9e-05 ± 1.6e-05 | 5.61e-05 ± 1.2e-05 | 2.19e-05 ± 1.1e-05 | 4.61e-05 ± 1.2e-05 | 8.07e-05 ± 1.7e-05
22 | G13A G32C | 0.00056 ± 0.00021 |  | 6.56e-05 ± 8.7e-06 | 0.000136 ± 1.8e-05 | 0.000388 ± 5.3e-05 |  | 
23 | G13C A48G | < 1e-05 |  |  | < 1e-05 | < 1e-05 |  | 
24 | A12U G66C | 0.00201 ± 0.00014 | 1270 ± 160 | 0.00058 ± 0.00016 | 0.00145 ± 0.00028 | 0.00177 ± 0.00022 | 6.36e-05 ± 1.1e-05 | 
25 | A14C U46G | 0.000823 ± 0.00019 | 1630 ± 660 | 0.000209 ± 2.4e-05 | 0.000478 ± 4.8e-05 | 0.000795 ± 0.0001 | 4.79e-05 ± 1.2e-05 | 8.78e-05 ± 1.5e-05
26 | A14C U46A | 0.000352 ± 1.6e-05 | 1880 ± 170 | 9.13e-05 ± 1e-05 | 0.000194 ± 2.1e-05 | 0.000301 ± 3.2e-05 |  | 
27 | A14C U46C | 0.000346 ± 4.7e-05 | 1090 ± 350 | 0.000128 ± 2.4e-05 |  | 0.000326 ± 4.5e-05 |  | 5.14e-05 ± 1.9e-05
28 | G13U U47G | 0.000262 ± 5.2e-05 | 2420 ± 890 | 4.72e-05 ± 7.2e-06 | 0.000158 ± 1.5e-05 | 0.00019 ± 2.5e-05 |  | 
29 | G13U U47C | 7.04e-05 ± 3.2e-06 | 1030 ± 150 | 2.85e-05 ± 1.2e-05 | 4.74e-05 ± 1.2e-05 | 6.59e-05 ± 1.6e-05 |  | 
30 | A12U G32U | 0.000501 ± 4.8e-05 | 4270 ± 690 | 6.09e-05 ± 8.4e-06 | 0.000196 ± 2.1e-05 | 0.000345 ± 3.4e-05 |  | 2.63e-05 ± 1.2e-05
31 | G13A U55G C71G | 4.93e-05 ± 1.6e-05 |  |  | 7.49e-05 ± 2.8e-05 | 4.08e-05 ± 1.6e-05 | < 1e-05 | 
32 | G13C U69G | 5.45e-05 ± 1.1e-05 |  | 9.44e-05 ± 2.5e-05 | 4.52e-05 ± 1.2e-05 |  | 3.61e-05 ± 1.3e-05 | 4.33e-05 ± 1.6e-05
